Earlier results as cited in paper PMC6478124.

Biological target: HDM2 (Homo sapiens) (UniProt Q00987)
Sequence (Q00987 whole entry): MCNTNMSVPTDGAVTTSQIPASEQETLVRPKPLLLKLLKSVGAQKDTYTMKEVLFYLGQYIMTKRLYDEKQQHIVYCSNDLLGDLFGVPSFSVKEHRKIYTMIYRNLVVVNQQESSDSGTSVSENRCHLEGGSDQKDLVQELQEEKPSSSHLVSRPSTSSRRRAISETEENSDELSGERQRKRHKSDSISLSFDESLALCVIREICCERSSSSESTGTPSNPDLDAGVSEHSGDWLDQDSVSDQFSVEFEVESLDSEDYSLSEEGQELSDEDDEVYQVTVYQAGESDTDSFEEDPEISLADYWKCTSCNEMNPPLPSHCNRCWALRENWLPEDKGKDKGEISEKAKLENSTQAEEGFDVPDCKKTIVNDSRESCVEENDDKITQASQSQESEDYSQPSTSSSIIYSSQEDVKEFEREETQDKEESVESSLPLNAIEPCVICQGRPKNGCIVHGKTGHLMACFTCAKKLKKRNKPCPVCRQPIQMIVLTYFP

Kd: 6.76 nM
Substance: stapled p53 transactivation domain peptide transactivation domain α-helix (from UniProt P04637)
